Earlier results, collected in publication PMC9570074.
pKd: −log10 of the molar value. Like-named read-outs stand apart in the source and are kept apart here. Values belong to the substance of their own block, whether it stands above or below them.

Columns and labels:
[1] = target: CD30L (Homo sapiens) (UniProt P32971); test: SPR
[2] = target: TRAIL (Homo sapiens) (UniProt P50591)
[3] = target: TRAIL (Homo sapiens) (UniProt P50591); remark: listed apart in the source

Chain of UniProt P50591 (P50591 whole entry): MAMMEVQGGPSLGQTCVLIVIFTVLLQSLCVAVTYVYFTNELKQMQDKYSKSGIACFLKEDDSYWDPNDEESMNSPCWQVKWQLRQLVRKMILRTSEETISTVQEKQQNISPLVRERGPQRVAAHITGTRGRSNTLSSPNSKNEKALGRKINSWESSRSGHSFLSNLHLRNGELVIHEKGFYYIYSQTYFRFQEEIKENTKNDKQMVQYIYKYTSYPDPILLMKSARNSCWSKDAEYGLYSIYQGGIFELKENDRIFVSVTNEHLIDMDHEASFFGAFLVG
Chain of UniProt P32971 (P32971 whole entry): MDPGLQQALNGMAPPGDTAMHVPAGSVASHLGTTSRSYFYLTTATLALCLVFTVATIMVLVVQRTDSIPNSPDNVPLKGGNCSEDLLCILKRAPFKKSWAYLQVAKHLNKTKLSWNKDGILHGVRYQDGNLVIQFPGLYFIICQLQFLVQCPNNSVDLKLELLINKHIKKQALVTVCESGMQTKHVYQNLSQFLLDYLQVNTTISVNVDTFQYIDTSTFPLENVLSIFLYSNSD

pKd [1]: 8.30
Substance: CD30 (from UniProt P28908)

pKd [2]: 9.00
Substance: DcR1 (from UniProt O14798)

pKd [3]: 9.00
Substance: DcR2 (from UniProt Q9UBN6)
